Assay results from PMC3670934, “Milligram Production and Biological Activity Characterization of the Human Chemokine Receptor CCR3” (PLoS ONE, 2013).

B1: Human chemokine receptor CCR3 with a C-terminal 10-His tag (receptor, UniProt P51677 1-355, looked up)
chain: MTTSLDTVETFGTTSYYDDVGLLCEKADTRALMAQFVPPLYSLVFTVGLLGNVVVVMILIKYRRLRIMTNIYLLNLAISDLLFLVTLPFWIHYVRGHNWVFGHGMCKLLSGFYHTGLYSEIFFIILLTIDRYLAIVHAVFALRARTVTFGVITSIVTWGLAVLAALPEFIFYETEELFEETLCSALYPEDTVYSWRHFHTLRMTIFCLVLPLLVMAICYTGIIKTLLRCPSKKKYKAIRLIFVIMAVFFIFWTPYNVAILLSSYQSILFGNDCERSKHLDLVMLVTEVIAYSHCCMNPVIYAFVGERFRKYLRHFFHRHLLMHLGRYIPFLPSEKLERTSSVSPSTAEPELSIVF
notes: human chemokine receptor CCR3; theoretical molecular weight with the tag 42 kDa; The form full length is read from the printed primers (start codon to the last codons of the gene, then tag and stop); By the reverse primer two glycine codons seem to lie between the last CCR3 residue and the ten histidines (surmised from the primer); also called hCCR3; source: also in detergent cell lysate; not …

Legend:
[1] = biological target: B1; assay: SPR; Biacore T100; His-tagged hCCR3 immobilised on a Ni-activated NTA sensor chip, chemokine flowed at 30 µl/min; 25°C; 10 mM HEPES, 0.15 M NaCl, 0.1% (wt/vol) DDM, pH 7.4; hCCR3 purified in DDM; 1:1 binding model, KD = kd/ka; conditions: both partners purified
[2] = biological target: B1; assay: as above; conditions: both partners purified; remark: listed apart in the source
[3] = biological target: B1; assay: SPR; Biacore T100; His-tagged hCCR3 immobilised on a Ni-activated NTA sensor chip, chemokine flowed at 30 µl/min; 25°C; 10 mM HEPES, 0.15 M NaCl, 0.1% (wt/vol) FC-14, pH 7.4; hCCR3 purified in FC-14; 1:1 binding model, KD = kd/ka; conditions: both partners purified
[4] = biological target: the molecule itself; assay: SDS-PAGE and western blot; hCCR3 after Ni affinity chromatography in FC-14; 4-12% NuPAGE Bis-Tris gel, LDS sample buffer with reducing agent, not heated; anti-His blot; bands at about 34, 58, 82 and 115 kDa
[5] = biological target: B1; assay: SPR; Biacore T100; His-tagged hCCR3 immobilised on a Ni-activated NTA sensor chip, chemokine flowed at 30 µl/min; 25°C; 10 mM HEPES, 0.15 M NaCl, 0.1% (wt/vol) FC-14, pH 7.4; hCCR3 purified in FC-14; 1:1 binding model, KD = kd/ka; conditions: both partners purified; remark: listed apart in the source

Row | Kd [1] [nM] | Kd [2] [nM] | koff [2] [s⁻¹] | kon [2] [M⁻¹ s⁻¹] | Kd [3] [nM] | koff [3] [s⁻¹] | kon [3] [M⁻¹ s⁻¹] | kon [5] [M⁻¹ s⁻¹] | Binder | binding result [4]
1 | 730 |  |  |  |  |  |  |  | commercial recombinant human CCL11 (PeproTech) (ligand, recombinant human chemokine CCL11, bought; No catalogue number printed; probably the mature chemokine (surmised); also called CCL11 from PeproTech; commercial CCL11; source: bought: PeproTech (USA)) not shown | 
2 |  | 70 | 0.017 | 250000 | 1300 | 0.063 | 49000 |  | CCL11 (eotaxin), home-made recombinant (ligand, CCL11 (eotaxin), endogenous ligand of human CCR3; The detailed protocol is said to be submitted in a separate manuscript; Probably the mature chemokine without its signal peptide (surmised); also called eotaxin/CCL11; home-made CCL11) not shown | 
3 |  |  |  |  |  |  |  |  | B1 | binds
4 |  | 58 | 0.003 | 51000 | 1600 | 0.037 | 22000 | 23000 | CCL24 (eotaxin-2), home-made recombinant (ligand, human, UniProt O00175 27-119, looked up, CCL24 (eotaxin-2), endogenous ligand of human CCR3; The detailed protocol is said to be submitted in a separate manuscript; Probably the mature chemokine without its signal peptide (surmised); also called eotaxin-2/CCL24; home-made CCL24) VVIPSPCCMFFVSKRIPENRVVSYQLSSRSTCLKAGVIFTTKKGQQFCGDPKQEWVQRYMKNLDAKQKKASPRARAVAVKGPVQRYPGNQTTC | 
5 | 210 |  |  |  |  |  |  |  | commercial recombinant human CCL24 (PeproTech) (ligand, UniProt O00175 27-119, looked up, recombinant human chemokine CCL24, bought; No catalogue number printed; probably the mature chemokine (surmised); also called CCL24 from PeproTech; commercial CCL24; source: bought: PeproTech (USA)) VVIPSPCCMFFVSKRIPENRVVSYQLSSRSTCLKAGVIFTTKKGQQFCGDPKQEWVQRYMKNLDAKQKKASPRARAVAVKGPVQRYPGNQTTC | 
